# Measured values: the supplement of paper PMC9112550, “Optimization of the antimicrobial peptide Bac7 by deep mutational scanning” (BMC Biology, 2022)
# Tested on: Escherichia coli TOP10
# Test: shrunken log2 fold change of peptide-encoding DNA abundance (4.5 h post-induction vs induction); higher = less antimicrobial activity (less host growth inhibition)
# Details: time post-induction: 4.5 h; library: site-saturation at positions 5, 18, 19, 20
# 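Note: peptides expressed intracellularly from a pBAD plasmid library in pooled LB shake-flask culture, induced with 0.3% L-arabinose, DNA abundance read by NGS, three biological replicates, DESeq2 with apeglm shrinkage.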
sequence,measurement,value
RRIRIRPPRLPRPRPRPEHNPRP,shrunken log2 fold change,-0.505
RRIRVRPPRLPRPRPRPNSGPRP,shrunken log2 fold change,-0.496
RRIRVRPPRLPRPRPRPHTIPRP,shrunken log2 fold change,-0.487
RRIRNRPPRLPRPRPRPANPPRP,shrunken log2 fold change,0.0813
RRIRARPPRLPRPRPRPNEFPRP,shrunken log2 fold change,-0.362
RRIRNRPPRLPRPRPRPKSFPRP,shrunken log2 fold change,-0.00133
RRIRYRPPRLPRPRPRPFYCPRP,shrunken log2 fold change,-1.27
RRIRKRPPRLPRPRPRPHTIPRP,shrunken log2 fold change,0.00577
RRIRIRPPRLPRPRPRPMFIPRP,shrunken log2 fold change,-0.454
RRIRNRPPRLPRPRPRPTCDPRP,shrunken log2 fold change,0.0801
RRIRVRPPRLPRPRPRPKGFPRP,shrunken log2 fold change,-0.00211
RRIRKRPPRLPRPRPRPHGTPRP,shrunken log2 fold change,-0.0973
RRIRKRPPRLPRPRPRPKEHPRP,shrunken log2 fold change,0.405
RRIRNRPPRLPRPRPRPCFRPRP,shrunken log2 fold change,-0.241
RRIRNRPPRLPRPRPRPEIIPRP,shrunken log2 fold change,-0.00607
RRIRERPPRLPRPRPRPQYAPRP,shrunken log2 fold change,-0.158
RRIRMRPPRLPRPRPRPIYSPRP,shrunken log2 fold change,-0.0833
RRIRWRPPRLPRPRPRPKRMPRP,shrunken log2 fold change,0.217
RRIRDRPPRLPRPRPRPIVHPRP,shrunken log2 fold change,-0.25
RRIRFRPPRLPRPRPRPYHVPRP,shrunken log2 fold change,0.0272
RRIRHRPPRLPRPRPRPKICPRP,shrunken log2 fold change,0.0596
RRIRERPPRLPRPRPRPVQLPRP,shrunken log2 fold change,-0.329
RRIRNRPPRLPRPRPRPFKRPRP,shrunken log2 fold change,0.09
RRIRYRPPRLPRPRPRPFYMPRP,shrunken log2 fold change,-0.258
RRIRCRPPRLPRPRPRPCWHPRP,shrunken log2 fold change,-0.169
RRIRFRPPRLPRPRPRPAMLPRP,shrunken log2 fold change,0.0665
RRIRGRPPRLPRPRPRPVPVPRP,shrunken log2 fold change,0.629
RRIRQRPPRLPRPRPRPMMGPRP,shrunken log2 fold change,-0.107
RRIRQRPPRLPRPRPRPPCTPRP,shrunken log2 fold change,-0.0301
RRIRLRPPRLPRPRPRPRKSPRP,shrunken log2 fold change,0.376
RRIRMRPPRLPRPRPRPRCLPRP,shrunken log2 fold change,-0.0778
RRIRHRPPRLPRPRPRPHHMPRP,shrunken log2 fold change,-0.324
RRIRSRPPRLPRPRPRPHGPPRP,shrunken log2 fold change,-0.0864
RRIRRRPPRLPRPRPRPKRIPRP,shrunken log2 fold change,0.191
RRIRLRPPRLPRPRPRPGDEPRP,shrunken log2 fold change,0.114
RRIRFRPPRLPRPRPRPWNNPRP,shrunken log2 fold change,-0.0242
RRIRLRPPRLPRPRPRPLLDPRP,shrunken log2 fold change,0.3
RRIRGRPPRLPRPRPRPVNLPRP,shrunken log2 fold change,-0.152
RRIRERPPRLPRPRPRPMWPPRP,shrunken log2 fold change,0.186
RRIRLRPPRLPRPRPRPSLIPRP,shrunken log2 fold change,-0.217
RRIRGRPPRLPRPRPRPEQQPRP,shrunken log2 fold change,-0.0199
RRIRQRPPRLPRPRPRPQLCPRP,shrunken log2 fold change,-0.0247
RRIRTRPPRLPRPRPRPTDSPRP,shrunken log2 fold change,-0.106
RRIRTRPPRLPRPRPRPIHEPRP,shrunken log2 fold change,-0.259
RRIRYRPPRLPRPRPRPKPYPRP,shrunken log2 fold change,-0.698
RRIRMRPPRLPRPRPRPHVVPRP,shrunken log2 fold change,-0.0448
RRIRCRPPRLPRPRPRPPSWPRP,shrunken log2 fold change,0.194
RRIRIRPPRLPRPRPRPSREPRP,shrunken log2 fold change,-0.0977
RRIRYRPPRLPRPRPRPQGPPRP,shrunken log2 fold change,-0.0382
RRIRIRPPRLPRPRPRPRFSPRP,shrunken log2 fold change,-0.231
RRIRVRPPRLPRPRPRPGPPPRP,shrunken log2 fold change,0.564
RRIRVRPPRLPRPRPRPFNTPRP,shrunken log2 fold change,2.64
RRIRHRPPRLPRPRPRPRCPPRP,shrunken log2 fold change,0.169
RRIRDRPPRLPRPRPRPIINPRP,shrunken log2 fold change,0.423
RRIRSRPPRLPRPRPRPTLCPRP,shrunken log2 fold change,0.0788
RRIRMRPPRLPRPRPRPCAMPRP,shrunken log2 fold change,0.424
RRIRQRPPRLPRPRPRPCLQPRP,shrunken log2 fold change,-0.112
RRIRWRPPRLPRPRPRPSFFPRP,shrunken log2 fold change,0.0041
RRIRDRPPRLPRPRPRPYHSPRP,shrunken log2 fold change,-0.198
RRIRLRPPRLPRPRPRPAQCPRP,shrunken log2 fold change,-0.23
RRIRDRPPRLPRPRPRPLKSPRP,shrunken log2 fold change,0.00491
RRIRARPPRLPRPRPRPCISPRP,shrunken log2 fold change,0.0706
RRIRRRPPRLPRPRPRPCGVPRP,shrunken log2 fold change,0.0719
RRIRMRPPRLPRPRPRPFQTPRP,shrunken log2 fold change,0.00707
RRIRDRPPRLPRPRPRPDSAPRP,shrunken log2 fold change,-0.0433
RRIRCRPPRLPRPRPRPEDCPRP,shrunken log2 fold change,0.173
RRIRHRPPRLPRPRPRPAMCPRP,shrunken log2 fold change,-0.148
RRIRPRPPRLPRPRPRPHRTPRP,shrunken log2 fold change,-0.0599
RRIRSRPPRLPRPRPRPYSHPRP,shrunken log2 fold change,-0.712
RRIRCRPPRLPRPRPRPNDYPRP,shrunken log2 fold change,-0.42
RRIRYRPPRLPRPRPRPHCAPRP,shrunken log2 fold change,-0.544
RRIRYRPPRLPRPRPRPCYDPRP,shrunken log2 fold change,-0.379
RRIRSRPPRLPRPRPRPINTPRP,shrunken log2 fold change,-0.648
RRIRARPPRLPRPRPRPKYGPRP,shrunken log2 fold change,-0.0411
RRIRHRPPRLPRPRPRPADCPRP,shrunken log2 fold change,-0.395
RRIRRRPPRLPRPRPRPRRWPRP,shrunken log2 fold change,0.386
RRIRGRPPRLPRPRPRPDYMPRP,shrunken log2 fold change,-0.0973
RRIRDRPPRLPRPRPRPAIRPRP,shrunken log2 fold change,0.53
RRIRIRPPRLPRPRPRPHEAPRP,shrunken log2 fold change,-0.396
RRIRHRPPRLPRPRPRPDWPPRP,shrunken log2 fold change,0.114
RRIRQRPPRLPRPRPRPAGWPRP,shrunken log2 fold change,0.808
RRIRLRPPRLPRPRPRPFEIPRP,shrunken log2 fold change,0.0206
RRIRGRPPRLPRPRPRPDMPPRP,shrunken log2 fold change,0.168
RRIRTRPPRLPRPRPRPKSNPRP,shrunken log2 fold change,-0.448
RRIRPRPPRLPRPRPRPKMCPRP,shrunken log2 fold change,0.0196
RRIRNRPPRLPRPRPRPWGEPRP,shrunken log2 fold change,0.157
RRIRDRPPRLPRPRPRPWMWPRP,shrunken log2 fold change,0.00708
RRIRSRPPRLPRPRPRPCADPRP,shrunken log2 fold change,0.0939
RRIRERPPRLPRPRPRPQTPPRP,shrunken log2 fold change,0.0694
RRIRSRPPRLPRPRPRPQKTPRP,shrunken log2 fold change,0.0161
RRIRDRPPRLPRPRPRPVKCPRP,shrunken log2 fold change,-0.117
RRIRCRPPRLPRPRPRPESHPRP,shrunken log2 fold change,0.0129
RRIRARPPRLPRPRPRPVECPRP,shrunken log2 fold change,0.0527
RRIRPRPPRLPRPRPRPDMVPRP,shrunken log2 fold change,-0.177
RRIRPRPPRLPRPRPRPNGDPRP,shrunken log2 fold change,-0.0945
RRIRKRPPRLPRPRPRPIKFPRP,shrunken log2 fold change,-0.131
RRIRDRPPRLPRPRPRPHMSPRP,shrunken log2 fold change,-0.00968
RRIRTRPPRLPRPRPRPGPRPRP,shrunken log2 fold change,0.716
RRIRIRPPRLPRPRPRPCWYPRP,shrunken log2 fold change,-0.461
RRIRNRPPRLPRPRPRPPLCPRP,shrunken log2 fold change,0.167
RRIRHRPPRLPRPRPRPFWMPRP,shrunken log2 fold change,-0.0444
RRIRPRPPRLPRPRPRPDSMPRP,shrunken log2 fold change,-0.326
RRIRYRPPRLPRPRPRPQMSPRP,shrunken log2 fold change,-0.0435
RRIRRRPPRLPRPRPRPWQFPRP,shrunken log2 fold change,-0.0199
RRIRLRPPRLPRPRPRPKDHPRP,shrunken log2 fold change,-0.123
RRIRHRPPRLPRPRPRPSIDPRP,shrunken log2 fold change,-0.617
RRIRRRPPRLPRPRPRPAQEPRP,shrunken log2 fold change,0.146
RRIRMRPPRLPRPRPRPVVHPRP,shrunken log2 fold change,0.0142
RRIRMRPPRLPRPRPRPIWNPRP,shrunken log2 fold change,-0.0214
RRIRPRPPRLPRPRPRPVNIPRP,shrunken log2 fold change,-0.226
RRIRWRPPRLPRPRPRPITDPRP,shrunken log2 fold change,-0.15
RRIRSRPPRLPRPRPRPAAYPRP,shrunken log2 fold change,0.269
RRIRDRPPRLPRPRPRPFNTPRP,shrunken log2 fold change,-0.686
RRIRYRPPRLPRPRPRPFINPRP,shrunken log2 fold change,-1.17
RRIRERPPRLPRPRPRPWVEPRP,shrunken log2 fold change,0.0665
RRIRPRPPRLPRPRPRPVCAPRP,shrunken log2 fold change,0.396
RRIRKRPPRLPRPRPRPEVNPRP,shrunken log2 fold change,3.37
RRIRQRPPRLPRPRPRPDIHPRP,shrunken log2 fold change,-0.0439
RRIRERPPRLPRPRPRPCTLPRP,shrunken log2 fold change,-0.407
RRIRYRPPRLPRPRPRPSRMPRP,shrunken log2 fold change,-0.303
RRIRLRPPRLPRPRPRPKFQPRP,shrunken log2 fold change,-0.113
RRIRYRPPRLPRPRPRPSREPRP,shrunken log2 fold change,-0.0635
RRIRPRPPRLPRPRPRPTWAPRP,shrunken log2 fold change,0.381
RRIRPRPPRLPRPRPRPMLVPRP,shrunken log2 fold change,0.0962
RRIRWRPPRLPRPRPRPPWCPRP,shrunken log2 fold change,0.183
RRIRPRPPRLPRPRPRPQFKPRP,shrunken log2 fold change,0.0824
RRIRARPPRLPRPRPRPIPFPRP,shrunken log2 fold change,0.00602
RRIRCRPPRLPRPRPRPSFFPRP,shrunken log2 fold change,-0.552
RRIRRRPPRLPRPRPRPASLPRP,shrunken log2 fold change,0.338
RRIRSRPPRLPRPRPRPWPSPRP,shrunken log2 fold change,0.117
RRIRCRPPRLPRPRPRPNEHPRP,shrunken log2 fold change,-0.553
RRIRARPPRLPRPRPRPDQNPRP,shrunken log2 fold change,0.489
RRIRWRPPRLPRPRPRPWMCPRP,shrunken log2 fold change,-0.174
RRIRTRPPRLPRPRPRPAPNPRP,shrunken log2 fold change,0.0436
RRIRIRPPRLPRPRPRPKGCPRP,shrunken log2 fold change,-0.00865
RRIRFRPPRLPRPRPRPGMCPRP,shrunken log2 fold change,-0.0231
RRIRYRPPRLPRPRPRPNTFPRP,shrunken log2 fold change,-1.24
RRIRLRPPRLPRPRPRPAWVPRP,shrunken log2 fold change,-0.0218
RRIRSRPPRLPRPRPRPREKPRP,shrunken log2 fold change,0.0145
RRIRRRPPRLPRPRPRPDYTPRP,shrunken log2 fold change,-0.0883
RRIRMRPPRLPRPRPRPSHAPRP,shrunken log2 fold change,0.282
RRIRNRPPRLPRPRPRPSLFPRP,shrunken log2 fold change,-0.453
RRIRARPPRLPRPRPRPFWCPRP,shrunken log2 fold change,0.0247
RRIRGRPPRLPRPRPRPCMNPRP,shrunken log2 fold change,0.104
RRIRGRPPRLPRPRPRPEIAPRP,shrunken log2 fold change,1.86
RRIRMRPPRLPRPRPRPIFFPRP,shrunken log2 fold change,0.276
RRIRFRPPRLPRPRPRPKKLPRP,shrunken log2 fold change,0.173
RRIRCRPPRLPRPRPRPVQVPRP,shrunken log2 fold change,-0.164
RRIRMRPPRLPRPRPRPYCVPRP,shrunken log2 fold change,0.117
RRIRDRPPRLPRPRPRPEINPRP,shrunken log2 fold change,0.648
